*1 amine or outer side, *2 acyl side, *3 side chain or, on linkers, in order; H or OH if unused. Bridges are numbered along the chain shown (N, C = ends). Primed or numbered codes have the meaning given here. [ ]: non-standard residue; d: D form. The star is where a group is joined. Ttds = 1,13-diamino-4,7,10-trioxatridecan-succinamic acid, NCCCOCCOCCOCCCNC(=O)CCC(=O)*; DOTA(In) = O=C1CN2CCN3CCN(CC(=O)*)CCN(CC2)CC(=O)[O][In]([O]1)[O]C(=O)C3; (dE)(AGLU) = D-glutamic acid bearing 1-amino-1-deoxy-D-glucitol; APAc″ = 4-amino-1-carboxymethylpiperidine, NC1CCN(CC(=O)*)CC1; dE(AGLU) = D-glutamic acid bearing 1-amino-1-deoxy-D-glucitol; Pro(trans-4-NH2) = O=C([C@@H]1C[C@@H](N[*:3])CN1[*:1])[*:2]; DOTA = O=C(O)CN1CCN(CC(=O)O)CCN(CC(=O)*)CCN(CC(=O)O)CC1; 3MeBn = 3-methyl-benzylidene (derived from 1,3-xylene); 2Lut = 2,6-lutidylidene bridge between two thiols; Trp(5-Cl) = N[C@@H](Cc1c[nH]c2ccc(Cl)cc12)C(=O)O; Pyridine(2,6-diCH2) = c1cc(C[*:1])nc(C[*:2])c1; Cysol = L-cysteinol, OC[C@H](CS[*:3])N[*:1]; Pro(trans-4-F) = O=C(O)[C@@H]1C[C@@H](F)CN1; APAc = 4-amino-1-carboxymethylpiperidine; mXylylene = c1cc(C[*:1])cc(C[*:2])c1; LuDOTA = DOTA Lutetium(III) complex; Glutaryl = O=C(CCCC(=O)[*:2])[*:1]; AGLU = 1-amino-1-deoxy-D-glucitol; Hyp = O=C(O)[C@@H]1C[C@@H](O)CN1; Cysteamide = C(CS[*:3])N[*:1]; αMeS = C[C@](N)(CO)C(=O)O; Api = NC1(C(=O)O)CCNCC1; Nphe′ = N-phenylalanine; Thp = NC1(C(=O)O)CCOCC1; Aib = CC(C)(N)C(=O)O; Nlys = NCCCCNCC(=O)O; Nleu′ = N-leucine; Sar = CNCC(=O)O
B1: Ac-Glu-Trp-5Clw-Hyp-Glu-leu-[Cys(2Lut)-Thp-Leu-Ile-Cys]-NH2 (peptide)
peptide: Ac-EW[Trp(5-Cl)][Hyp]E[dL]C[Thp]LIC-NH2
modifications: linker 7-11 via Pyridine(2,6-diCH2)
SMILES: CC[C@H](C)[C@@H]1NC(=O)[C@H](CC(C)C)NC(=O)C2(CCOCC2)NC(=O)[C@@H](NC(=O)[C@@H](CC(C)C)NC(=O)[C@H](CCC(=O)O)NC(=O)[C@@H]2C[C@@H](O)CN2C(=O)[C@H](Cc2c[nH]c3ccc(Cl)cc23)NC(=O)[C@H](Cc2c[nH]c3ccccc23)NC(=O)[C@H](CCC(=O)O)NC(C)=O)CSCc2cccc(n2)CSC[C@@H](C(N)=O)NC1=O

Molecular target: human Gastric Inhibitory Peptide Receptor (human) (UniProt P48546)
Test: FACS competition with GIP-057 on CHO-K1-hGIPR cells; pIC50 category A: >8.0

human Gastric Inhibitory Peptide Receptor (human), sequence (P48546 22-466 limits assumed): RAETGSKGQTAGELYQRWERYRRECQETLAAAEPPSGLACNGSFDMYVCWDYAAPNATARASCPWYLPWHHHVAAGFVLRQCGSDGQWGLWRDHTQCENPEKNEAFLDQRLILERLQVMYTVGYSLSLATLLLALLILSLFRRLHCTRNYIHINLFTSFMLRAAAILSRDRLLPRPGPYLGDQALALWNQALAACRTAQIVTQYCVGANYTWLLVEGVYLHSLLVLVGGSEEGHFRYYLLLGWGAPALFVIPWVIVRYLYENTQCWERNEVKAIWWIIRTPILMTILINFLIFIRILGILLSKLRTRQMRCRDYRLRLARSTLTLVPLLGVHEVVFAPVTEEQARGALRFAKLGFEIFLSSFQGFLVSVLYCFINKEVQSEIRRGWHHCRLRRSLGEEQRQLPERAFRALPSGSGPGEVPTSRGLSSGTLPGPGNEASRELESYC

pIC50 [pic50] | Binder
> 8 | {DOTA(In)-Ttds}-DW[Trp(5-Cl)]PE[dL]C[Aib]LI[Cysteamide] (linker 7-11 via 3MeBn; also: DOTA as indium complex (InDOTA)) [InDOTA-Ttds-Asp-Trp-5Clw-Pro-Glu-leu-[Cys(3MeBn)-Aib-Leu-Ile-AET]]
> 8 | Ac-DW[Trp(5-Cl)][Nlys]E[dL]C[Thp]LIC-NH2 (linker 7-11 via Pyridine(2,6-diCH2)) [Ac-Asp-Trp-5Clw-Nlys-Glu-leu-[Cys(2Lut)-Thp-Leu-Ile-Cys]-NH2]
> 8 | {DOTA(In)-Ttds}-DW[Trp(5-Cl)]PE[dL]C[Aib]LI[Cysteamide] (linker 7-11 via 2Lut; also: DOTA as indium complex (InDOTA)) [InDOTA-Ttds-Asp-Trp-5Clw-Pro-Glu-leu-[Cys(2Lut)-Aib-Leu-Ile-AET]]
> 8 | {AGLU-Glutaryl}-DW[Trp(5-Cl)][Hyp]E[dL]C[Thp]LIC-NH2 (linker 7-11 via Pyridine(2,6-diCH2)) [AGLU-Glutar-Asp-Trp-5Clw-Hyp-Glu-leu-[Cys(2Lut)-Thp-Leu-Ile-Cys]-NH2]
> 8 | {LuDOTA-Ttds}-DW[Trp(5-Cl)][Hyp]E[dL]C[Aib]LI[Cysteamide] (linker 7-11 via mXylylene) [LuDOTA-Ttds-Asp-Trp-5Clw-Hyp-Glu-leu-[Cys(3MeBn)-Aib-Leu-Ile-AET]]
> 8 | Ac-DW[Trp(5-Cl)][Hyp]E[dL]C[Thp]LIC-OH (linker 7-11 via Pyridine(2,6-diCH2)) [Ac-Asp-Trp-5Clw-Hyp-Glu-leu-[Cys(2Lut)-Thp-Leu-Ile-Cys]-OH]
> 8 | {LuDOTA-Ttds}-DW[Trp(5-Cl)]PE[dL]C[αMeS]LI[Cysteamide] (linker 7-11 via mXylylene) [LuDOTA-Ttds-Asp-Trp-5Clw-Pro-Glu-leu-[Cys(3MeBn)-Ams-Leu-Ile-AET]]
> 8 | Ac-DW[Trp(5-Cl)][Sar]E[dL]C[Thp]LIC-NH2 (linker 7-11 via Pyridine(2,6-diCH2)) [Ac-Asp-Trp-5Clw-Nmg-Glu-leu-[Cys(2Lut)-Thp-Leu-Ile-Cys]-NH2]
> 8 | {LuDOTA-APAc″}-DW[Trp(5-Cl)]PE[dL]C[Aib]LI[Cysteamide] (linker 7-11 via mXylylene) [LuDOTA-APAc-Asp-Trp-5Clw-Pro-Glu-leu-[Cys(3MeBn)-Aib-Leu-Ile-AET]]
> 8 | Ac-DW[Trp(5-Cl)][Nleu′]E[dL]C[Thp]LIC-NH2 (linker 7-11 via Pyridine(2,6-diCH2)) [Ac-Asp-Trp-5Clw-Nleu-Glu-leu-[Cys(2Lut)-Thp-Leu-Ile-Cys]-NH2]
> 8 | {AGLU-Glutaryl-APAc}-DW[Trp(5-Cl)][Pro(trans-4-NH2)]E[dL]C[Api](DOTA)LIC-{APAc-dE(AGLU)-NH2} (linker 7-11 via Pyridine(2,6-diCH2)) [AGLU-Glutar-APAc-Asp-Trp-5Clw-Tap-Glu-leu-[Cys(2Lut)-Apc(DOTA)-Leu-Ile-Cys]-APAc-glu(AGLU)-NH2]
> 8 | Ac-DW[Trp(5-Cl)][Nphe′]E[dL]C[Thp]LIC-NH2 (linker 7-11 via Pyridine(2,6-diCH2)) [Ac-Asp-Trp-5Clw-Nphe-Glu-leu-[Cys(2Lut)-Thp-Leu-Ile-Cys]-NH2]
> 8 | {DOTA(In)-Ttds}-DW[Trp(5-Cl)]PE[dL]C[Thp]LI[Cysteamide] (linker 7-11 via mXylylene; also: indium(III) complexed in DOTA) [InDOTA-Ttds-Asp-Trp-5Clw-Pro-Glu-leu-[Cys(3MeBn)-Thp-Leu-Ile-AET]]
> 8 | Ac-DW[Trp(5-Cl)][Hyp]E[dL]C[Thp]LIC-{APAc-(dE)(AGLU)-NH2} (linker 7-11 via Pyridine(2,6-diCH2)) [Ac-Asp-Trp-5Clw-Hyp-Glu-leu-[Cys(2Lut)-Thp-Leu-Ile-Cys]-APAc-glu(AGLU)-NH2]
> 8 | B1
> 8 | Ac-DW[Trp(5-Cl)][Hyp]E[dL]C[Thp]LI[Cysol]-OH (linker 7-11 via Pyridine(2,6-diCH2)) [Ac-Asp-Trp-5Clw-Hyp-Glu-leu-[Cys(2Lut)-Thp-Leu-Ile-Cysol]-OH]
> 8 | Ac-DW[Trp(5-Cl)][Pro(trans-4-F)]E[dL]C[Thp]LIC-NH2 (linker 7-11 via Pyridine(2,6-diCH2)) [Ac-Asp-Trp-5Clw-4Tfp-Glu-leu-[Cys(2Lut)-Thp-Leu-Ile-Cys]-NH2]
> 8 | Ac-DW[Trp(5-Cl)][Hyp]E[dL]C[Thp]LIC-NH2 (linker 7-11 via Pyridine(2,6-diCH2)) [Ac-Asp-Trp-5Clw-Hyp-Glu-leu-[Cys(2Lut)-Thp-Leu-Ile-Cys]-NH2]

Reference: patent US20250296971A1, “GASTRIC INHIBITORY PEPTIDE RECEPTOR LIGANDS” (priority 2021, published 2025)
